# Measured values published in patent publication US20040208880A1.
# Target: GFP-tagged Pak1 (human) (UniProt Q13153)
# Test: cell-based or functional assay
# GFP-tagged Pak1 (human), sequence (Q13153 whole entry A26V/E503D): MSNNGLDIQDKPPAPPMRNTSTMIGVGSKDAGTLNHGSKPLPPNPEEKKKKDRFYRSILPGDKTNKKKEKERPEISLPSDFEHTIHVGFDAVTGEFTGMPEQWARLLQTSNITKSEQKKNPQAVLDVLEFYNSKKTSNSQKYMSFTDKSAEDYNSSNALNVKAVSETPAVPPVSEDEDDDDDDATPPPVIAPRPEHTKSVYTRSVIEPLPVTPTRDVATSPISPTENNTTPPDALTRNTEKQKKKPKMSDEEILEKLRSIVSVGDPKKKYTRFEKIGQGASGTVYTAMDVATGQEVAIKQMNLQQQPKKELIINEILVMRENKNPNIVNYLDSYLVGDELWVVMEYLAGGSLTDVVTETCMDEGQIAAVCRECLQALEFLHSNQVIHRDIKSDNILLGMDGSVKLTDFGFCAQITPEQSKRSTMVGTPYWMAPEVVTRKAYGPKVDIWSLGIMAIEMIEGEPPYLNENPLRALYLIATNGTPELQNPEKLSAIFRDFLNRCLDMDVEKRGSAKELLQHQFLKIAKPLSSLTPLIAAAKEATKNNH
substance,measurement,value
RFP-DLC1-1-66 (from UniProt P61273 1-66),"vesicle formation (macropinocytosis), confocal microscopy of cotransfected SKBR3 cells (% of the transfected cells)",> 80
